Experimental data as given in patent publication US20200262894A1 (FRED HUTCHINSON CANCER RESEARCH CENTER, published 2020).
Substitutions are numbered along the chain they refer to. Non-standard residues stand in square brackets, D forms with d.

Key:
Experiment in all cases: flow cytometry, cytometric bead array with BSA-coupled peptides
[1] = target: T1, STII peptide H2N-CGNWSHPQFEKGC-OH, maleimide-coupled to BSA carrier protein (cysteine pairing not given here; also: maleimide-coupled to BSA carrier protein)
T1 construct: on a cytometric bead array as BSA conjugate
T1 peptide: H-CGNWSHPQFEKGC-OH

[2] = target: T2, STII peptide H2N-CGNWSHPQFEK-amide, maleimide-coupled to BSA carrier protein (also: maleimide-coupled to BSA carrier protein)
T2 construct: on a cytometric bead array as BSA conjugate
T2 peptide: H-CGNWSHPQFEK-NH2

[3] = target: T3, STII peptide Ac-C(dPEG4)NWSHPQFEK-amide, maleimide-coupled to BSA carrier protein (also: maleimide-coupled to BSA carrier protein)
T3 construct: on a cytometric bead array as BSA conjugate
T3 peptide: Ac-C[dPEG4]NWSHPQFEK-NH2

Measured: binding result

B1: anti-STII monoclonal antibody 4E2 (antibody, V domains shown)
VH: QVQLQQSGAELARPGASVKLSCTASGYTFTSYGITWVRQRTGQGLEWIGEIFPGSGDTSYGEKLKGQATLTTDKSSSTAYMQLSSLTSEDSAVYFCARRYRYIYHAMDYWGQGTSVTVSS
VL: DILMTQTPLSLPVSLGDQASISCRSSQSIVHSNGNTYLEWYLQKPGQSPKLLIYKVSNRFSGVPDRFSGSGSGTDFTLKISRVEAEDLGVYYCFQGSHVPLTFGAGTKLELK
notes: also called 4E2 mAb
binds: all assays above

B2: anti-STII monoclonal antibody 3E8 (antibody, V domains shown)
VH: EVQLVETGGGFVKPGGSLKLSCAASGFTFSSYGMSWVRQTPEKRLEWVAAITSDGGGTHYPDTVKGRFTISRDFAKNTLYLQMSSLRSEDTAWYFCARHEPRLIAWFAHWGQGTLVTVSA
VL: B1 VL with I2V, N35Y, K55E, S81I, L101W, A105G, L111I
notes: also called 3E8 mAb; STII-specific mAb 3E8
binds: all assays above

B3: anti-STII monoclonal antibody 5G2 (antibody, V domains shown)
VH: B1 VH with L64F
VL: B1 VL with S81R
notes: also called 5G2 mAb; anti-STII 5G2 mAb
binds: all assays above
